*1 amine or outer side, *2 acyl side, *3 side chain or, on linkers, in order; H or OH if unused. Where a SMILES comes first, the peptide text is derived from it. Bridges are numbered along the chain shown (N, C = ends). Roman numbers before positions name the chains, in order. Where no end group is shown, it is not given here. [ ]: non-standard residue; d: D form. CO(CH2CH2O)9CH2CH2CO = O=C(CCOCCOCCOCCOCCOCCOCCOCCOCCOCCC(=O)[*:2])[*:1]; 3Pal = N[C@@H](Cc1cccnc1)C(=O)O
B1: peptide complex, dimer structure No. 51 (peptide sequence No. 15 + linker structure No. 10) (peptide)
peptide: {CH2CO}-FSPY[3Pal]WPTYSE[3Pal]VECG
modifications: thioether N-15; also: homodimer via linker No. 10 (PEG2c-K-cPEG1c-K-PEG2c) at Gly16
B2: peptide complex, dimer structure No. 33 (peptide sequence No. 15 + linker structure No. 4) (peptide)
peptide: {CH2CO}-FSPY[3Pal]WPTYSE[3Pal]VECG
modifications: thioether N-15; also: homodimer via linker No. 4 (PEG8c-K-cPEG1c-K-PEG8c) at Gly16

Target: TrkB of the cells of the PathHunter eXpress TrkB Functional Assay kit (DiscoverX) (UniProt Q16620 32-822, limits assumed)
Sequence (Q16620 32-822 limits assumed): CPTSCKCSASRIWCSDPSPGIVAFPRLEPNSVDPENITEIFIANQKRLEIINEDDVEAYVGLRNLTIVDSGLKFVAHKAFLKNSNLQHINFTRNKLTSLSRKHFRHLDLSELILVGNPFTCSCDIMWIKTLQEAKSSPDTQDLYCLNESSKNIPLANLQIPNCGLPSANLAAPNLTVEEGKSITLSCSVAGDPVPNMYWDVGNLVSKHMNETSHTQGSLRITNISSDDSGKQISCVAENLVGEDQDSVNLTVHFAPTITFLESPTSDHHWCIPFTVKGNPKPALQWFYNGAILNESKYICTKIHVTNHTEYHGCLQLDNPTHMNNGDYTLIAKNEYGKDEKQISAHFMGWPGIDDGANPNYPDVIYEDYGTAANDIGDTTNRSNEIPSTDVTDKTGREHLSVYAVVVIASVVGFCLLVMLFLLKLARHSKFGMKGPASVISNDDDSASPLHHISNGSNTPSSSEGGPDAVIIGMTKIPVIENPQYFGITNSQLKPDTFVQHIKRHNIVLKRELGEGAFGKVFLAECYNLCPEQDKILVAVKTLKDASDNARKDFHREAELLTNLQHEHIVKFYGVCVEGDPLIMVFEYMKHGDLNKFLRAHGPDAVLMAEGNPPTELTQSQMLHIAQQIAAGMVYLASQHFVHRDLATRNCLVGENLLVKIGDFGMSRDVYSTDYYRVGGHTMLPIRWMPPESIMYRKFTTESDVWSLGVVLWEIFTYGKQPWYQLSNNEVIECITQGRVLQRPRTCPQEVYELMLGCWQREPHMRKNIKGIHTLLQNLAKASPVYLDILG
Experiment: cell-based or functional assay
Settings: not given

In order of rising “PathHunter EC50” value:
1. {CH2CO}-FLPY[3Pal]WPTYSE[3Pal]VECG (thioether N-15; also: homodimer via linker No. 2 (PEG8c-K-PEG8c) at Gly16) [peptide complex, dimer structure No. 14 (peptide sequence No. 14 + linker structure No. 2)]  0.197 nM
2. {CH2CO}-FEPY[3Pal]WPTYSE[3Pal]VSCG (thioether N-15; also: homodimer via linker No. 2 (PEG8c-K-PEG8c) at Gly16) [peptide complex, dimer structure No. 18 (peptide sequence No. 18 + linker structure No. 2)]  0.26 nM
3. {CH2CO}-FSPY[3Pal]WPTYSE[3Pal]VECG (thioether N-15; also: homodimer via linker No. 2 (PEG8c-K-PEG8c) at Gly16) [peptide complex, dimer structure No. 15 (peptide sequence No. 15 + linker structure No. 2)]  0.29 nM
4. B2  0.354 nM
5. {CH2CO}-FSPY[3Pal]WPTYSE[3Pal]VECG (thioether N-15; also: homodimer via linker No. 6 (K-cPEG9c-K) at Gly16) [peptide complex, dimer structure No. 47 (peptide sequence No. 15 + linker structure No. 6)]  0.556 nM
6. {CH2CO}-FSPY[3Pal]WPTYSE[3Pal]VECG (thioether N-15; also: homodimer via linker No. 14 (K-OCOPEG13OCO-K) at Gly16) [peptide complex, dimer structure No. 55 (peptide sequence No. 15 + linker structure No. 14)]  0.581 nM
7. B1  0.599 nM
8. {CH2CO}-FSPY[3Pal]WPTYSE[3Pal]VECG (thioether N-15; also: homodimer via linker No. 8 (K-cPEG17c-K) at Gly16) [peptide complex, dimer structure No. 49 (peptide sequence No. 15 + linker structure No. 8)]  0.644 nM
9. {CH2CO}-FEPY[3Pal]WPTYSE[3Pal]VECG (thioether N-15; also: homodimer via linker No. 14 (K-OCOPEG13OCO-K) at Gly16) [peptide complex, dimer structure No. 57 (peptide sequence No. 17 + linker structure No. 14)]  0.669 nM

In order of falling “PathHunter Emax (BDNF maximum = 100%)” value:
1. {CH2CO}-FSPY[3Pal]WPTYSE[3Pal]VECG (thioether N-15; also: homodimer via linker No. 8 (K-cPEG17c-K) at Gly16) [peptide complex, dimer structure No. 49 (peptide sequence No. 15 + linker structure No. 8)]  107%
2. {CH2CO}-FSPY[3Pal]WPTYSE[3Pal]VECG (thioether N-15; also: homodimer via linker No. 6 (K-cPEG9c-K) at Gly16) [peptide complex, dimer structure No. 47 (peptide sequence No. 15 + linker structure No. 6)]  107%
3. B1  106%
4. {CH2CO}-FSPY[3Pal]WPTYSE[3Pal]VECG (thioether N-15; also: homodimer via linker No. 2 (PEG8c-K-PEG8c) at Gly16) [peptide complex, dimer structure No. 15 (peptide sequence No. 15 + linker structure No. 2)]  104%
5. {CH2CO}-FSPY[3Pal]WPTYSE[3Pal]VECG (thioether N-15; also: homodimer via linker No. 14 (K-OCOPEG13OCO-K) at Gly16) [peptide complex, dimer structure No. 55 (peptide sequence No. 15 + linker structure No. 14)]  104%
6. {CH2CO}-FEPY[3Pal]WPTYSE[3Pal]VECG (thioether N-15; also: homodimer via linker No. 14 (K-OCOPEG13OCO-K) at Gly16) [peptide complex, dimer structure No. 57 (peptide sequence No. 17 + linker structure No. 14)]  99%
7. B2  96%
8. {CH2CO}-FEPY[3Pal]WPTYSE[3Pal]VSCG (thioether N-15; also: homodimer via linker No. 2 (PEG8c-K-PEG8c) at Gly16) [peptide complex, dimer structure No. 18 (peptide sequence No. 18 + linker structure No. 2)]  93%
9. {CH2CO}-FLPY[3Pal]WPTYSL[3Pal]VWCG (thioether N-15; also: homodimer via linker No. 2 (PEG8c-K-PEG8c) at Gly16) [peptide complex, dimer structure No. 2 (peptide sequence No. 3 + linker structure No. 2)]  89%
10. {CH2CO}-FLPY[3Pal]WPTYSL[3Pal]VWCG (thioether N-15; also: homodimer via linker No. 3 (PEG12c-K-PEG12c) at Gly16) [peptide complex, dimer structure No. 3 (peptide sequence No. 3 + linker structure No. 3)]  89%
11. {CH2CO}-FLPY[3Pal]WPTYSE[3Pal]VECG (thioether N-15; also: homodimer via linker No. 2 (PEG8c-K-PEG8c) at Gly16) [peptide complex, dimer structure No. 14 (peptide sequence No. 14 + linker structure No. 2)]  86%

Target: TrkB (Homo sapiens, UniProt Q16620)
Sequence (Q16620 32-822): as the sequence (Q16620 32-822 limits assumed) above
Experiment: PathHunter eXpress TrkB Functional Assay (phosphorylation of TrkB)
Format: cell-based
Settings: maximum signal induced by BDNF = 100%; stimulation for 3 hours
Method: To evaluate the TrkB activation potency of the TrkB agonist peptide of the present invention, the phosphorylation of TrkB was examined. The PathHunter (registered trademark) eXpress TrkB Functional Assay kit (DiscoverX; cells, 96-well plate, medium, and detection reagents included) was used and the evaluation was performed according to the attached protocols. The frozen cells were thawed and suspended in the medium, then seeded into a 96-well plate at 10,000 cells per well and incubated for 48 hours. Thereafter, Recombinant Human BDNF Protein (R&D Systems) or a peptide was added, and after stimulation for 3 hours, a detection reagent was added. The reaction was performed while protected from the light at room temperature for 60 minutes, and luminescent signals were measured using a SpectraMax Paradigm Multi-Mode Microplate Reader (Molecular Devices). The obtained signals were analyzed with GraphPad Prism, and the activity (%) was calculated with the maximum value of the signals induced by BDNF as 100% and a signal with no stimulation as 0%.
The BDNF was evaluated at 8 points (0.006 nM to 100 nM) from 100 nM using 4-fold dilutions. The peptide was evaluated in the measurement ranges A to C shown below. • Measurement range A=6 points from 100 nM using 5-fold dilutions (0.032 nM to 100 nM) • Measurement range B=8 points from 100 nM using 4-fold dilutions (0.006104 nM to 100 nM) • Measurement range C=4 points from 10 nM using 10-fold dilutions (0.01 nM to 10 nM)

With CC(C)[C@@H]1NC(=O)[C@H](Cc2cccnc2)NC(=O)[C@H](CCC(=O)O)NC(=O)[C@H](CO)NC(=O)[C@H](Cc2ccc(O)cc2)NC(=O)[C@H]([C@@H](C)O)NC(=O)[C@@H]2CCCN2C(=O)[C@H](Cc2c[nH]c3ccccc23)NC(=O)[C@H](Cc2cccnc2)NC(=O)[C@H](Cc2ccc(O)cc2)NC(=O)[C@@H]2CCCN2C(=O)[C@H](CO)NC(=O)[C@H](Cc2ccccc2)NC(=O)CSC[C@@H](C(=O)NCC(=O)N[C@@H](CCCCNC(=O)CCOCCOCCOCCOCCOCCOCCOCCOCCOCCC(=O)NCCCC[C@H](NC(=O)CNC(=O)[C@@H]2CSCC(=O)N[C@@H](Cc3ccccc3)C(=O)N[C@@H](CO)C(=O)N3CCC[C@H]3C(=O)N[C@@H](Cc3ccc(O)cc3)C(=O)N[C@@H](Cc3cccnc3)C(=O)N[C@@H](Cc3c[nH]c4ccccc34)C(=O)N3CCC[C@H]3C(=O)N[C@@H]([C@@H](C)O)C(=O)N[C@@H](Cc3ccc(O)cc3)C(=O)N[C@@H](CO)C(=O)N[C@@H](CCC(=O)O)C(=O)N[C@@H](Cc3cccnc3)C(=O)N[C@@H](C(C)C)C(=O)N[C@@H](CCC(=O)O)C(=O)N2)C(N)=O)C(N)=O)NC(=O)[C@H](CCC(=O)O)NC1=O [compound 47] (I: {CH2CO}-FSPY[3Pal]WPTYSE[3Pal]VECGK-NH2 / II: {CH2CO}-FSPY[3Pal]WPTYSE[3Pal]VECGK-NH2; linker I:17-II:17 via CO(CH2CH2O)9CH2CH2CO; thioether I:N-I:15, II:N-II:15) the Emax was 107%.
